Measurements as given in article PMC12120770, “Unveiling Structural Heterogeneity and Evolutionary Adaptations of Heteromultimeric Bacterioferritin Nanocages” (Advanced Science, 2025).

Legend:
[1] = target: the molecule itself; assay: native gel or EMSA; purified PaBfrB on 6% native PAGE, Tris-glycine pH 8.3, 4 °C
[2] = target: the molecule itself; assay: cryo-EM structure; single-particle cryo-EM of purified SoBfr12 (1.7 mg mL^-1), subunits co-expressed in E. coli; refined with C1 symmetry, 2.62 Å

| Protein | binding result [1] | stoichiometry N [2] |
| --- | --- | --- |
| PaBfrB, Pseudomonas aeruginosa homo-bacterioferritin subunit (natural protein, also called homo-Bfr) not shown | binds | – |
| SoBfr2, heme-binding subunit of the Shewanella oneidensis hetero-bacterioferritin SoBfr12 (natural protein) MKGHPKVVGQLNRVLTCELTAINQYFLHARMFKHWGLEKLNHVEYKKSIEDMKHADKLIERVLFLEGLPNLQQLEKLRIGEHAQEMLDCDLAMVQEQLTLLRDAITLCEAEQDYVSRDLLEDILEDEEEHLDWLESQRELIGLTGIQNYLQSQISES | – | 2 |
| SoBfr1, heme-free subunit of the Shewanella oneidensis hetero-bacterioferritin SoBfr12 (natural protein, SoBfr1, heme-free bacterioferritin subunit of Shewanella oneidensis, amplified from genomic DNA together with SoBfr2; Expressed from one DNA fragment encoding SoBfr2 and SoBfr1 with a Strep-tag II; not shown: Strep-tag II, C-terminal, kept) MKGDKDVIDALNRLLTGELSAMDQYFVHAHMYEDWGLNELYERIAHESDDEKGHAAKLVQRILFLEGVPNVAAREALNIGSNVEEMLRNDLAYEYKVADDLRKVIALCEQKKDYQTREILEVLLDDTESDHMYWLEKQLGLIDRIGLANYLQTKM | – | 2 |
